Measurements as given in article PMC2858024, “Identification and molecular characterization of a novel flavin-free NADPH preferred azoreductase encoded by azoB in Pigmentiphaga kullae K24” (BMC Biochemistry, 2010).

Tests used:
Assay in all cases: purified protein
purified protein [1] = substrate: O=S(=O)(O)c1ccc(N=Nc2ccc(O)c3ccccc23)cc1; conditions: apparent, co-substrate NADPH 1 mM, potassium phosphate pH 6.8, room temperature (general assay)
purified protein [2] = substrate: NC(=O)C1=CN([C@@H]2O[C@H](COP(=O)(O)OP(=O)(O)OC[C@H]3O[C@@H](n4cnc5c(N)ncnc54)[C@H](O)[C@@H]3O)[C@@H](O)[C@H]2O)C=CC1; conditions: apparent, Orange I 30 μM, potassium phosphate pH 6.8, room temperature (general assay)
purified protein [3] = substrate: NC(=O)C1=CN([C@@H]2O[C@H](COP(=O)(O)OP(=O)(O)OC[C@H]3O[C@@H](n4cnc5c(N)ncnc54)[C@H](OP(=O)(O)O)[C@@H]3O)[C@@H](O)[C@H]2O)C=CC1; conditions: apparent, Orange I 30 μM, potassium phosphate pH 6.8, room temperature (general assay)

B1: AzoB (Pigmentiphaga kullae) (protein)
chain: MNIAIIGATGNVGSRLVNEALARGHHVTAIARHASRLAARPGLDTLDIDLADGAKLAGALRGKDAAISSVRFATSPLAAVLGPVRQAGLRRLLVVGGAGSLEVAPGAALVDTPTFPAEYKPEALAGRDWLNALRTEKDLDWTFLSPSALFVPGERTGTFRLGGDTLLTAADGRSWISMEDFAIAMLDEVEKPAHTGRRFTVGY
Question: With B1 as the protein, how does the Km (purified protein [1]) read?
Answer: 3.0 µM

Question: And the Vmax (purified protein [1])?
Answer: 36 µmol/min/mg

Question: What about the Km (purified protein [2]) of the same protein?
Answer: 170 µM

Question: And the Vmax (purified protein [2])?
Answer: 17 µmol/min/mg

Question: What about the Km (purified protein [3]) of the same protein?
Answer: 1.0 µM

Question: What about the Vmax (purified protein [3]) of the same protein?
Answer: 33 µmol/min/mg
